US20260216242A1, “ALPP-SPECIFIC VARIANT ANTIGEN BINDING MOLECULES” (ALMAC DISCOVERY LIMITED, priority 2022, published 2026)

T1: ALPI His homodimer (Homo sapiens, UniProt P09923)
T1 sequence (P09923 with tags, fused parts or gaps): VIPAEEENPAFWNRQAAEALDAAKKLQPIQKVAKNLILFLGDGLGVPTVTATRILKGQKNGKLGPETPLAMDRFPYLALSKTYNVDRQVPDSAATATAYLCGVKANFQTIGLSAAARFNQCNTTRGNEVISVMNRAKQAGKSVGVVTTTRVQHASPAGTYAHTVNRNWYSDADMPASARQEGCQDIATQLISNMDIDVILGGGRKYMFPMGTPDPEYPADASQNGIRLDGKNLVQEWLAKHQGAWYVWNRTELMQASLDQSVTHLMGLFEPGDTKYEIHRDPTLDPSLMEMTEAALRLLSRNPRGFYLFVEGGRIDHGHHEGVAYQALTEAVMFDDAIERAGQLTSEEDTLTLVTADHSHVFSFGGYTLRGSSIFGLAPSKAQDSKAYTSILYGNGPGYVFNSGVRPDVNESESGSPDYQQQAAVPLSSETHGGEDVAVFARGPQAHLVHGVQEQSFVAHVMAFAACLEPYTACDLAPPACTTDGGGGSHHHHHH

B1: E06: ALPP/ALPPL2 targeting VHH domain, SEQ ID NO: 30 (protein)
VHH: QVHLVESGGGLVQAGGSLRLSCAASRRSFSEYAMGWFRQAPGKEREFVAAIGWSGVIEYADSVKGRFTISRDNAKDTVYLQMNSLKPEDTAVYYCAAGLGIRVVSQTPAYWGQGTQVTVSS
B2: A05: ALPP/ALPPL2 targeting VHH domain, SEQ ID NO: 16; tested C-terminally His-tagged (protein)
VHH: QVQLVESGGGLVQAGASLTLSCAASGFTFNTRSIVWFRQAPGKEREAVSCISKVAGSTYYGDSVQGRFSSSTDNAKNTVSLQMNSLKPEDTAVYTCAASFAPNCYGWSVAANMEYWGEGTMVTVSS
modifications: C-terminal His tag
notes: tested C-terminally His-tagged
B3: F08: ALPP/ALPPL2 targeting VHH domain, SEQ ID NO: 35 (protein)
VHH: QVQLVESGGGSVQAGGSLRLSCAASGPSLSNYAMGWFRQAPGKEREFVAGISWGGGRTSYTDSVKGRFTISRDNAKNTVYLQMNNLKPEDTGVYYCAGRYGRGRNVEYEYDYWGQGTQVTVSS
B4: B01: ALPP/ALPPL2 targeting VHH domain, SEQ ID NO: 20 (protein)
VHH: QVQLVESGGGLVQAGGSLRLSCEVTRSPMPIDTMAWYRQAPGRQRELVAIISRSGSTNYADSVKGRFTISRNDTKSTMYKSTMYLKMNTLELEDTGVYYCNAVGLWNGAEYWGQGTQVTVSS
B5: E10: ALPP/ALPPL2 targeting VHH domain, SEQ ID NO: 31 (protein)
VHH: QVQLVESGGGLVQAGGSLRLSCAVSGRALSDYNIGWFRQAPGKEREFVARKTWDGSSTRYDDSVKGRFTVSIEDAKNTAYLQMSSLKTEDTAVYYCAAGRYSRARGWEYDYWGQGTQVTVSS
B6: F05: ALPP/ALPPL2 targeting VHH domain, SEQ ID NO: 34 (protein)
VHH: QVQLVESGGGLVQAGGSLRLSCAASGRAFGDYNIGWFRQAPGKEREFVARRTWDGSSTRYDDSVKGRFTVSIDNAKNTAYLQMNSLKTEDTAVYYCAAGRYSRVRGWEYDYWGQGTQVTVSS
B7: D10: ALPP targeting VHH domain, SEQ ID NO: 28 (protein)
VHH: QVQLVESGGGLVQPGGSLRLSCAASGSIFSVNTMGWYRQAPGKQRDLVAVATSGGTIHYADSVKGRFTISRDNAKNTVYLQMNSLKPEDTAVYYCNLVVPYGMIAGDHDYWGQGTKVTVSS
B8: D04: ALPP/ALPPL2 targeting VHH domain, SEQ ID NO: 26 (protein)
VHH: QVQLVESGGGLVQPGGSLRLSCAASESTFSINVMGWYRQAPGKQRELVATITSGDITNYADSVKGRFTISRDNAENTVYLRTNSLKPEDTAVYYCNARGEYHSGNEYDYWGQGTQVTVSS
B9: C07: ALPP/ALPPL2 targeting VHH domain, SEQ ID NO: 25 (protein)
VHH: QVQLVESGGGLVQAGESLRLACAASGTIFSGNAVGWYRQAPEKQREWVSSITDYGDTDYAEAVKGRFTISRDNAKNTVYLQMNSLKPEDTAVYYCYVYQRGESEEYWGQGTQVTVSS
B10: A06: ALPP/ALPPL2 targeting VHH domain, SEQ ID NO: 17; tested C-terminally His-tagged (protein)
VHH: QVHLVESGGGLVQAGGSLRLSCAASGRTFLSMGWFRQAPGKEREFVAAISWTGGSTGYADSVKGRFTISRESDKETMYLQMNSLKPEDTAVYYCAARGDVYYGGDDATRYKYWGQGTQVTVSS
modifications: C-terminal His tag
notes: as for B2

Assays:
[1] = Thermal stability (Protein Thermal Shift assay); assay type: physicochemical; details: VHH domains, first derivative analysis
Method: Thermal stability assays used Applied Biosystems StepOne Real Time PCR system with the Protein Thermal Shift™ dye kit (Thermo Fisher). The assay mix was set up so that the protein was at a final concentration of 20 µM in 20 μL. 5 μL of Thermal Shift™ buffer was added alongside 2.5 μL 8× Thermal Shift™ Dye. Assays were run using the StepOne software and data analysed using Protein Thermal Shift™ software. All data are from first derivative analysis.

[2] = molecular target: Human ALPPL2 (Homo sapiens, UniProt P10696); test: BLI binding kinetics, human ALPPL2 immobilised on AR2G sensors (KD / KD apparent); details: VHH domains
Method: Binding kinetics were determined using the Biolayer Interferometry (BLI) Octet K2 system (Sartorius). Human ALPP, ALPPL2, ALPL (each fused with a cysteine stabilised leucine zipper) and ALPI, (SEQ ID NO: 265, SEQ ID NO: 266 and SEQ ID NO: 267 and SEQ ID NO: 264 respectively) were immobilised in sodium acetate pH5 buffer to AR2G sensors using amine coupling. All assays were conducted in PBS with a plate temperature of 25° C. Ka (M^−1s^−1), Kd (s^−1) and KD (nM) values were determined using Octet Data Analysis High Throughput software (ForteBio) for Biolayer Interferometry.
(§1) Binding kinetics were determined using the Biolayer Interferometry (BLI) Octet K2 or R4 system (Sartorius). Human ALPP, ALPPL2 and ALPL all fused with a disulphide stabilised leucine zipper (SEQ ID NO: 265, SEQ ID NO: 266, and SEQ ID NO: 267) and ALPI His (SEQ ID NO: 264) were used in BLI experiments. For KD apparent measurements, the ALPP proteins were immobilised in sodium acetate pH5 buffer to AR2G sensors using amine coupling. To measure 1:1 interactions, AHC biosensors were used to immobilise Fc-fused proteins. All assays were conducted in HBS-EP with a plate temperature of 25° C. Ka (M^−1s^−1), Kd (s^−1) and KD (nM) values were determined using Octet Data Analysis High Throughput software (Sartorius) for Biolayer Interferometry.
as §1, with “NO:264)” for “NO: 264)”

[3] = molecular target: T1, ALPI His homodimer; test: ELISA binding to ALPI; details: 500 ng purified VHH
Method: ELISA was used to test the binding and specificity of the VHHs. ALPP CysHis (SEQ ID NO: 263), ALPI His homodimer (SEQ ID NO: 264) or BSA (Thermo Fisher) were coated onto plates and 500 ng of each purified VHH added. Anti-Llama—HRP antibody was used for detection.

Human ALPPL2, sequence (P10696 with tags, fused parts or gaps): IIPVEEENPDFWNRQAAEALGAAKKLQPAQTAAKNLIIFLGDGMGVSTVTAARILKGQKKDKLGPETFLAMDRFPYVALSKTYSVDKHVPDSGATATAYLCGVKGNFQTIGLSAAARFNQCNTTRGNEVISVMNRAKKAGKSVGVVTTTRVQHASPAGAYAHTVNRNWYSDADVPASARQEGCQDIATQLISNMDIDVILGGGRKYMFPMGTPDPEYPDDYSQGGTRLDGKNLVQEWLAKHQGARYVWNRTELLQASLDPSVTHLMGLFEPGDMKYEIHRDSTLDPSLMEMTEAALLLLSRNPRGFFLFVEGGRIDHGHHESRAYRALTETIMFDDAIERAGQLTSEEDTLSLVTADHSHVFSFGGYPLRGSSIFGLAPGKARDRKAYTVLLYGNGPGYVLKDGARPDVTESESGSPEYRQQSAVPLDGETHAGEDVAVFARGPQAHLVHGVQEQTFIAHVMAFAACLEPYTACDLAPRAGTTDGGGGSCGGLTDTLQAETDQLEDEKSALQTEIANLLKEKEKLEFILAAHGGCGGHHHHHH

Molecule	Tm [1]	hALPPL2 Ka [2]	hALPPL2 Kd [2]	ELISA hALPI [3]
B1	81.1 °C	1050000 M⁻¹ s⁻¹	0.0000875 s⁻¹	No Binding
B2	69.5 °C			No Binding
B3	77.6 °C	684000 M⁻¹ s⁻¹	<1e-07 s⁻¹	No Binding
B4	82.7 °C	482000 M⁻¹ s⁻¹	0.00014 s⁻¹	No Binding
B5	71.8 °C	1640000 M⁻¹ s⁻¹	0.000141 s⁻¹	No Binding
B6	70.6 °C	3740000 M⁻¹ s⁻¹	0.000356 s⁻¹	No Binding
B7	69.9 °C	2300000 M⁻¹ s⁻¹	0.0028 s⁻¹	No Binding
B8	59.8 °C	754000 M⁻¹ s⁻¹	0.00022 s⁻¹	No Binding
B9	70.7 °C	471000 M⁻¹ s⁻¹	0.000288 s⁻¹	No Binding
B10	73.2 °C	133000 M⁻¹ s⁻¹	0.000672 s⁻¹	No Binding
